Measured values reported in patent US10654896B2, “FoxP3-binding peptides and uses thereof” (FUNDACIÓN PARA LA INVESTIGACIÓN MÉDICA APLICADA, priority 2016, dated 2020).
Where a SMILES comes first, the peptide text is derived from it. Where no end group is shown, it is not given here. [ ]: non-standard residue; d: D form.

Tests used:
[1] = target: T1, human FOXP3 (FOXP3-6His) (Homo sapiens, UniProt Q9BZS1); experiment: Peptide binding to FOXP3 by surface plasmon resonance (SPR); conditions: peptides 1-20 μM; ratio to p60 (SEQ ID NO: 1)
T1 construct: 6xHis (C); made in house; host or cells: E. coli BL21 (DE3)
T1 sequence (Q9BZS1 1-431): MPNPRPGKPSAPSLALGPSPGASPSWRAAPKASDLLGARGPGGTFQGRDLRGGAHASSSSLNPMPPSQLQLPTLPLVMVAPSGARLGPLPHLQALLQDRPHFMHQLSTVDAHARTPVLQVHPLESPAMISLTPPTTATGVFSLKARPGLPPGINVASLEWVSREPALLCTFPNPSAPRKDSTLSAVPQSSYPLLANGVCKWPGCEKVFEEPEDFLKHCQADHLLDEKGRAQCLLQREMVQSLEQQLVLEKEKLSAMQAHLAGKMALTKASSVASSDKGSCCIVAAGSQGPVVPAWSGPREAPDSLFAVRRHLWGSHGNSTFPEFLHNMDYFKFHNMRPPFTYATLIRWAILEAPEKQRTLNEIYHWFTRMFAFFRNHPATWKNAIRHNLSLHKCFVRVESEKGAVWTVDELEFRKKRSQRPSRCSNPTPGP
Description: (§1) Plasmid pET20b FOXP3-His was generated to produce the human FOXP3 tagged with 6 histidines at the C terminus of the protein. Briefly, plasmid pDEST15-FOXP3 (provided by Dr. Casal, Madrid, Spain) was used as template to amplify FOXP3 by PCR using the primers Upper FOXP3 Ndel catatgcccaaccccaggc (SEQ ID NO: 55) and Lower FOXP3 […] (SEQ ID NO: 56). The resulting fragment was subcloned in pET20b at Ndel and NotI sites. pET45b His-Runx1 was obtained by PCR of activated human CD4 T cells obtained from healthy volunteers (after the signature of an informed consent) using the primers Upper Runx1 atgcgtatccccgtagatg (SEQ ID NO: 57) and Lower Runx1 […] (SEQ ID NO: 58) and the fragment was cloned in pcDNA3.1. Then, pET45b and pcDNA3.1-Runx1 were digested with BamHI and NotI and ligated to obtain pET45b-Runx1. Plasmids were used to transform BL21 cells (DE3; Novagen, Schwalbach, Germany) for the expression of the recombinant protein. The transformed BL21 cells were grown in LB medium at 37° C. (1 liter of final culture medium) (with ampicilin 0.1 mg/ml). Once the OD of the culture was between 0.5 and 1.0, IPTG (0.4 mM, final concentration) was added. Bacteria were then cultured overnight in agitation and centrifuged for 10 min at 8000 rpm. Cell pellet was then resuspended in 4 ml Tris-HCl 0.1 M and frozen at −80° C. Cell pellet was then thawed and incubated with lisozyme (25 KU) and a protease inhibitor cocktail for 15 min at 30° C. before cell lysis induced with a French-press. The resultant pool was then centrifuged during 20 min at 11.000 rpm). The recombinant protein was purified from the soluble fraction of French-press cell extracts by affinity chromatography (Histrap, Pharmacia) following manufacturer's instructions and using an FPLC platform (AKTA, Pharmacia). Plasmid pDEST15-FOXP3 encoding the fusion protein GST-FOXP3 (GST fused to the isoform A from human FOXP3 gene), was transformed into BL21 cells for the expression of the recombinant protein. GST-FOXP3 protein was purified from the soluble fraction of cell extracts obtained, as described above, by affinity chromatography (GSTrap; Amersham, Piscataway, N.J.) using a fast protein liquid chromatography platform (AKTA; Amersham) following manufacturer's instructions. The eluted proteins were desalted using Hitrap desalting columns (Pharmacia) and analyzed by SDS-PAGE using Coomassie blue (Bio-Safe Coomassie reagent; Bio-Rad, Hercules, Calif.) and by Western blot.
Screening of peptide binding to FOXP3 was performed by surface plasmon resonance (SPR) using ProteOn XPR36 (Bio-Rad, Hercules Calif., USA) optical biosensor. Recombinant protein FOXP3-6His was produced and purified from E. coli as disclosed in previous section and was immobilized covalently onto a GLM sensor chip (176-5012, Bio-Rad) using sulfo-NHS and EDC (Bio-Rad) coupling reagents and the manufacturer's instructions. After protein immobilization, chip surface was treated with ethanolamine to deactivate the excess of reactive esters.
Individual solutions of the peptides to be tested (1-20 μM) were injected by triplicate in running buffer (Phosphate buffered saline, 0.005% (v/v) Tween 20, pH 7.4) at a flow of 30 μl/min. The interspot signal (obtained in the chip surface not immobilized with protein) was used as reference. The results are summarized in Table 6 below as the ratio Peptide of the invention/p60.

[2] = test system: murine Treg (CD25+ T cells); experiment: In vitro Treg suppression assay ([3H]-thymidine, anti-CD3); type: cell-based, BALB/c mice
Method: Spleen was harvested from BALB/c mice (Harlan Laboratories) and homogenized with a 1-ml syringe through a 100-μm cell strainer into a 50-ml conical tube and rinsed two times with PBS (Calcium free) to recover all cells. Cell homogenate was centrifuged at 300×g for 10 min and resuspended homogenate in 1 ml ACK Lysis buffer solution per spleen. Gently swirled for 2 min and then the reaction was quenched by adding 12 ml of PBS.
Cells were centrifuged at 300×g for 10 min and purification of CD25− and CD25+ cells was carried out using magnetic beads (Miltenyi, CD25 microbead kit MOUSE, Ref 130-091-072)), following manufacturer's instructions. After labelling the cells, they were purified using Automacs-Pro device following manufacturer's instructions. Negative fraction corresponded to CD25− cells, which was used as effector Tconv cells. Positive fraction corresponded to CD25+ T cells that was used as Treg cells. Flow cytometry using anti-CD25-APC labeled and anti-CD4-FITC labelled antibodies was used to confirm the purity of isolated cells. Foxp3 expression was analyzed using the anti-Foxp3 staining antibody labelled with APC according to manufacturer's instructions (eBioscience). Purified cells were washed, resuspended in culture medium and diluted in T-cell culture medium (RPMI 1640, supplemented with 10% Fetal bovine serum and antibiotics) at a concentration of 2×10^5/ml (for Tregs) and 2×10^6/ml (for Tconv), for the assay (See below)
The first in vitro assays to measure regulatory T-cell (Treg) function were described by two groups over a decade ago. […] With this knowledge, it was shown that CD4+CD25+ T cells could potently suppress the proliferation of activated CD4+CD25− and CD8+ T cells when the populations were cocultured in vitro. The following protocol describes a basic type of in vitro Treg suppression assay where Treg function is measured in the absence of antigen-presenting cells (APCs). In this protocol, activation is mediated by anti-CD3 antibodies and includes only two cell types, the target Tconv and Tregs. In this protocol, the experiment is setup in a 96-well round-bottom plate in a total volume of 200 μl. All reagents are prepared at four times their desired final concentration and added to assay in 50 μl such that the total volume is 200 μl, thus obtaining the desired final concentration of reactives. Purified Tregs and Tconv prepared as described above were diluted and adjusted in T-cell culture medium to 2×10^5/ml and 2×10^6/ml, respectively. In round-bottom 96-well plate, Tregs and Tconv were added in 50 μl of culture media each (RPMI 1640, supplemented with 10% Fetal bovine serum, and antibiotics). Anti-CD3 antibody was added in 50 μl (final concentration will be 2.5 μg/ml) as a stimulus to induce T cell proliferation. 50 μL of each one of the peptides to be tested were added in the corresponding wells at a concentration of 100 μM and those which provided the best results were tested again at lower concentrations to determine the IC50 value. The final volume was 200 μl in all wells. Tconv alone, Tconv plus anti-CD3, Tconv+anti-CD3+ Treg or Tconv+anti-CD3+Treg+peptides were tested by quadruplicate. Tconv plus anti-CD3 with no Treg was used to determine maximum proliferation of Tconv whereas Tconv+anti-CD3+ Treg was used to determine Treg inhibition. Plates were incubated at 37° C., 5% CO2 for 72 h and then pulsed with 0.1 μCi [^3H]-thymidine (in 25 μl of culture medium per well). After 8 h of incubation, cell cultures were harvested with a cell harvester (Perkin Elmer) and using unifilter plates. Plates were then dried at 50° C., and scintillation reagent (25 μl)(Microscint, Perkin Elmer) was added to each well. Counts per minute (cpm) were determined with a direct beta counter (TopCount, Perkin Elmer).
The results of in vitro Treg suppression assays are most commonly reported as cpm when [^3H]-thymidine is incorporated into proliferating cells. […]

[3] = test system: CT26 tumor cells; experiment: Anti-tumor vaccination experiment (AH1 in IFA), CT26 challenge; type: in vivo, BALB/c; conditions: 10 nanomol/mice i.p. daily during 10 days after AH1/IFA; day 30 after injection of CT26
Method: For anti-tumor vaccination experiments, BALB/c animals immunized with 50 nanomol/mice of peptide AH1 emulsified in incomplete Freund adjuvant (IFA) (Casares et al., 2010, supra), were treated intraperitoneally with 10 nanomol/mice of the indicated Treg inhibitory peptide SEQ ID NO: 51 of the invention or with saline daily during 10 days. At day 10, mice were injected s.c. with 10^6 CT26 tumor cells. Tumor size was monitored twice a week with a calliper and it was expressed according to the formula V=(length×width2)/2. Mice were sacrificed when tumor size reached a volume greater than 4 cm^3.

[4] = target: T2, FOXP3/FOXP3 homodimerization (Homo sapiens, UniProt Q9BZS1); experiment: FOXP3/FOXP3 homodimerization inhibition (Alphascreen); type: biochemical; conditions: for Dimerization inhibition % inhibition (100 μM): peptide 100 μM
T2 construct: made in house; host or cells: E. coli BL21 (DE3)
T2 sequence (Q9BZS1 1-431): T1 sequence (Q9BZS1 1-431)
Description: as §1
(§2) It has been described that dimerization of FOXP3 is required for its function as a transcriptional regulator. Moreover, interaction between FOXP3 and the transcription factor Runx1, is crucially required for normal hematopoiesis including thymic T-cell development, but also for Treg suppressor activity (Reviewed in Lozano et al, Front Oncol. 2013, 3:294). Both activities are mediated by the intermediate region of Foxp3, which is the area of interaction between P60 and Foxp3. Thus, we studied the effect of P60 and their mutants on the FOXP3/Runx1 heterodimerization, as well as FOXP3/FOXP3 homodimerization by Alphascreen technology according to the manufacturer's instructions (Perkin Elmer, Benelux). AlphaScreen™ is a bead-based technology that is designed to measure the proximity of donor and acceptor beads conjugated to biomolecules of interest.
To measure FOXP3/FOXP3 homodimerization, recombinant Foxp3 was expressed with a Histine tag as disclosed in section (1) above, and captured by Nickel chelate Acceptor beads (Cat. AL108 Perkin Elmer) following manufacturer's instructions. The other version of recombinant FOXP3, expressing a GST tag (prepared as disclosed in section (1) above), was captured by Glutathione Donor beads (Perkin Elmer Cat. 6765300), following manufacturer's instructions. When the two proteins interacted together, the Donor and Acceptor beads come into proximity. Excitation of the Donor beads results in emission of light from the Acceptor beads. […]

[5] = target: T3, FOXP3/Runx1 heterodimerization (Homo sapiens, UniProt Q9BZS1); experiment: FOXP3/Runx1 heterodimerization inhibition (Alphascreen); type: biochemical; conditions: for Foxp3-Runx1 Inhibition % inhibition (100 μM): peptide 100 μM
T3 construct: made in house; host or cells: E. coli BL21 (DE3)
T3 sequence (Q9BZS1 1-431): T1 sequence (Q9BZS1 1-431)
Description: as §1, §2
To measure Foxp3-Runx1 interactions, Foxp3-GST and […] proteins were used.
Recombinant Runx1 expressed in E. Coli with a hexa-histidine tag (obtained as disclosed in section (1) above) was captured by nickel chelate acceptor beads following manufacturer's instructions, whereas the recombinant FOXP3 expressed with a GST tag was captured by glutathione donor beads (Perkin Elmer) following manufacturer's instructions. His-tagged Runx1 (46 nM final concentration) was incubated with 100 nM GST-FOXP3 and the peptides to be tested (added at different concentrations from 1 to 100 μM) for 1 h at room temperature. […]

Ac-GRAFQAFRKMWAFFAM-NH2 (C-terminus assumed) [compound 45]
Binding to Foxp3 Ratio binding Peptide/p60 (fold change) [1]: 8.0 fold change
IC50 [2]: 3000 nM

RAFQAFRKMWPFFAM (cyclo(R[dA]FQAFRKMWPFFAM); also: R1 and R2 form a birradical linker which is -C(=O)-) [SEQ ID NO: 51, head-to-tail cyclic peptide]
effect on growth of CT26 colon cancer tumor [3]: prevents the growth of tumor

2 (RDFQSFRKMWPFFAM-NH2; not fully specified (N-terminus)) [compound 2]
Binding to Foxp3 Ratio binding Peptide/p60 (fold change) [1]: 2.4 fold change
Dimerization inhibition % inhibition (20 μM) ([4]; peptide 20 μM): 80 (20 μM) %

30 (RDFQSFRKMWAFFAM) [compound 30]
Binding to Foxp3 Ratio binding Peptide/p60 (fold change) [1]: 1.1 fold change
Foxp3-Runx1 Inhibition % inhibition (100 μM) [5]: 73.9%
Dimerization inhibition % inhibition (100 μM) [4]: 81.3%

5 (RAFQSFRKMWPFFAM) [compound 5]
Binding to Foxp3 Ratio binding Peptide/p60 (fold change) [1]: 4.1 fold change
Foxp3-Runx1 Inhibition % inhibition (100 μM) [5]: 76.0%
Dimerization inhibition % inhibition (100 μM) [4]: 74.3%

CSCC[C@H](NC(=O)[C@H](C)NC(=O)[C@H](Cc1ccccc1)NC(=O)[C@H](Cc1ccccc1)NC(=O)[C@@H]1CCCN1C(=O)[C@H](Cc1c[nH]c2ccccc12)NC(=O)[C@H](CCSC)NC(=O)[C@H](CCCCN)NC(=O)[C@H](CCCNC(=N)N)NC(=O)[C@H](Cc1ccccc1)NC(=O)[C@H](CO)NC(=O)[C@H](CCC(N)=O)NC(=O)[C@H](Cc1ccccc1)NC(=O)[C@@H](C)NC(=O)[C@H](CCCNC(=N)N)NC(=O)CNC(C)=O)C(N)=O [compound 14] (Ac-GR[dA]FQSFRKMWPFFAM-NH2; C-terminus assumed)
Binding to Foxp3 Ratio binding Peptide/p60 (fold change) [1]: 3.6 fold change
inhibition at 2.5 µM ([5]; read-out: Foxp3-Runx1 Inhibition % inhibition (2.5 μM)): 80%
inhibition at 20 µM ([4]; read-out: Dimerization inhibition % inhibition (20 μM)): 90%

9 (RWFQSFRKMWPFFAM) [compound 9]
Binding to Foxp3 Ratio binding Peptide/p60 (fold change) [1]: 1.4 fold change
Treg inhibition - % inhibition (100 μM) ([2]; peptide 100 μM): 210.0%

19 (RDFQAFRKMWPFFAM) [compound 19]
Binding to Foxp3 Ratio binding Peptide/p60 (fold change) [1]: 1.1 fold change
Foxp3-Runx1 Inhibition % inhibition (100 μM) [5]: 74.7%
Dimerization inhibition % inhibition (100 μM) [4]: 89.0%
